{
  "source": "a protein production outcome set (Wang et al. 2014)",
  "data": [
    {"assay": "label from the status in PepcDB records", "values": [
      {"sequence": "MPLLFDSQMTPITNSGWRRHWFEIVYRHDTPPSRNFDLLLMSAILGSVLVVMLDSVLILQAHWKYFLYTLEWLFTLIFTADYLIRLVVVQQRLRYVLSIWGIIDLLSILPTYLSLFMPGTQSLLIVRVLRLLRLFRILKMTHYVEESGELIQALWRSRRKVMLFICTVMTIAMIAGATMYVIEGPQHGFTSIPTGMYWAIVTMTTVGFGDITPQSTLGRFVTSALILIGYSIIAVPTGIYTAELTQGLLRSEEEHRHDMRTCPHCGLQGHDHDARYCRNCGGILPQTLHEPNPATQQ", "protein production": "failed"},
      {"sequence": "MPLSVGQGYFTSSISSEKFNAIKESARLPELSLWEKIKAYFFTTHHAEALECIFNLYHHQELNLTPVQVRGAYIKLRALASQGCKEQFIIESQEHADKLIIKDDNGENILSIEVECHPEAFGLAKEINKSHPKPKNISLGDITRLVFFGDSLSDSLGRMFEKTHHILPSYGQYFGGRFTNGFTWTEFLSSPHFLGKEMLNFAEGGSTSASYSCFNCIGDFVSNTDRQVASYTPSHQDLAIFLLGANDYMTLHKDNVIMVVEQQIDDIEKIISGGVNNVLVMGIPDLSLTPYGKHSDEKRKLKDESIAHNALLKTNVEELKEKYPQHKICYYETADAFKVIMEAASNIGYDTENPYTHHGYVHVPGAKDPQLDICPQYVFNDLVHPTQEVHHCFAIMLESFIAHHYSTE", "protein production": "failed"},
      {"sequence": "MPLTDTALKALKPRDRIYSVADERGLSVEVYPTGGIVWRFRYRLAGRYEKLTLGKYPALSLRNARLKRDEAASLVAMGTSPARQKQLAKVTAADAMTVRDFAERFFREIQSRDRKDSTMPRRYLDKDILPFVGDKPMREVTAEEIRSLIWRKKEQGFDATAGQIRGVLKRLCDYAVTCGLMPTNPVLALPMRHVYKAVSRDRALSPDEIRLFLRAVWASRIRRQFKLALHLILLTMVRKSELLLARWDHVHLDQAQWHIPAEHSKTGKPHIVYLSRQAVVLFEALRVLAGGSALVMPGSGTLTRPFAHNALNHALGKAMQWQGIHAFTIHDLRRTASTWLHEHGWASDVVEKALNHSIGGVRGVYNRAEYADQRRQMLQCWADFIEKQLKTDHLLMVCHTELDGAKPGTP", "protein production": "failed"},
      {"sequence": "MPLTNHTPEDRVQDIFDHIAPQYDQMNSVISLGTHHWWRQRVMQAMTLHAGDFALDVCCGTGDWTIALAQAVGPAGHVVGFDFSGVMLQHATTKVRQAQLDDRITLRQGDAMQLPYPDNYFNVVTIGFGLRNVPDATQVLREMARVVKPGGQVVCLETSQPTNPLVHAGWQVYFGHVVPLMGRLAHHYQAYNYLQSSTHHFVSAKELSRLFTAAGLTQVHYDLFNLGAAAVHWGRKPYLEHHHHHH", "protein production": "not failed"},
      {"sequence": "MPNAIFFYRIQRWLYLHHIPFLPKLIQLLIFLIYNTKITADSKIGKGSYFVCKGISTVLIPGTEIGENCVLGLRFSTVRKFPYKNVPKIGNNVFIGPNVVICGPVEIGDNCIVAANSFVDKSLRGG", "protein production": "failed"},
      {"sequence": "MPNIGIIGAGIGGLQLGLQLRQHDIPVTIYTDKTANQIAGGRLLNSVAHHGPTLERERLLGVHFWPVEEYGYSCHHHYLGGDQPMSFRGDFTNWSSAIDYRLYLPKLSEAFQERGGNLEVRMLQADDIEPIAARHDLIVVAAGRGAFASMFPRRPDLSPYDTPQRALSVGIYRGIAESDPRGVTISTSPGHGDLLEIPMYTEDGFLTALLFENIPGGDLEILAKMSYDDDPQAFNRTVLDKLARHHPQTFERVDHTQFGLHRSIDLLQGALVPTVREDYAKLPGGKFALAIGDVHTVVDPLLGQGANSASHSAWVTGEAIVEDLGFDEMFCTRVARRRADVVLGAAQWTNLMLAPPAEHVLRLFEAMNANKAVADEFTHNFDHPDRQWQILATAERTNAFLARHGIESAAALAV", "protein production": "failed"},
      {"sequence": "MPNNHLTAAAPAQGREAIASPMERFSQAMVAWAEKWFPDAYVFVVVACAVVALGAILHGGDPLAVSKAFGEGFWSIIPLTMQMAMVAITGYVLALSPPVARLLRALARVPSTPRGAVVFIGTLSILLSLVNWGLSLIFSGLLVREMARRNDLRLDYRAAGAAGYLGLGCGFTLGMSSSAAQLQATPASIPASLMPITGVIGFSETILTWQNLVVVILVTVVSGLVCYFTAPSPERSLTAQDLGVDLTEPEAQAAQRQRPGDYLEFSPWLTVAVVGLASGWLYLTFRSGNPFITMSQLNTYNFVFLLLGLLLHWRPRSFLESFGRAMPSIGGVMLQFPFYGGIGYVLTKVANVQGHTLSDAIAHWFVSLAHDSSVFSILVSIYSAFLGFFIPSAGGKWVIEAPYIMDAANQIQAHLGWTVMVYNIAETLPNFINPFWMLPLLGILRLKSKDLVGYTAMQFLVHFPIVVAAGAILMHTFSYVPPVIPGQ", "protein production": "failed"},
      {"sequence": "MPNRKASRNAYYFFVQEKIPELRRRGLPVARVADAIPYCSSDWALLREEEKEKYAEMAREWRAAQGKDPGPSEKQKPVFT", "protein production": "not failed"},
      {"sequence": "MPNTIRLHRVLSAPPERVYRAFLDPLALAKWLPPEGFVCKVLEHDARVGGAYKMEFLAFASGQKHAFGGRYLELVPGERIRYTDRFDDAGLPGDMITTITLAPLSCGADLSIVQEGIPDAIPPENCYLGWQQSLKQLAALVEPDMPGLEHHHHHH", "protein production": "not failed"},
      {"sequence": "MPPCYQHEEEKFFLNAKGQKEALPSIWDSPTKQLSVVVPSYNEEKRLPVMMDEALNYLEKRQKHDCTFTYEVIVVDDGSEDQTSKVALKYCQKYGSDKVRVITLVRNRGKGGAVRMGVFSSRGEKILMADADGATKFPDVEKLEKGLSDLQPWPEQMAIACGSRAHLEKESIAQRSYFRTFLMYGFHFLVWFLCVKGIRDTQCGFKLLTREAAARTFSSLHIERWAFDVELLYIAQCLQIPIAEVAVNWTEIEGSKLVPFWSWLQMGKDLLFIRLRYLTGAWRLKQTRKAS", "protein production": "failed"},
      {"sequence": "MPPFLPLQVIKGVGPKRAVILAEAGIRSIADLYDCFPRRYLDRTTIKKIGALRDGETVTVVGSVTGTRFEGGGRGGSRFKAQITDGSGVLELTWFRGVHYFSKTIRSGELVAAHGRVTFFGRTPGMQHPDFDKLGGDDESGDGQRDDELYKTGAIIPIYPTTEAMKQAGLNSAALRRIVHRAFREHPLRITEYLSPEIIAANNLMPIGEAYRQLHFPDSAEQLERARYRMKWSELFFAQLFFALRRTEERRHLTSVRFERSGEKTASLHERLPFTMTSAQKQAVREIYHDLKSGRQMNRLLQGDVGSGKTLVAQFAMTLAVDNGLQAAFMAPTEILAFQHYAGLKNSLEPLGIRVALLTGRQKKKEREEKLARLERGEIDIAVGTHAIIEAGVQFRRLGLVIIDEQHRFGVLQRKALQEKAENPHVLLMTATPIPRTLTMGIYGDLDVSIIAEMPAGRKPIQTRLCCEAEKPELYRLLRKQIAEGRQAYIVYPLVEESEKIDLKAATESYEQLRREVFPELRLGLIHGQLPAAEKEAVMAEFRSGRLDILVGTTVIEVGVDVPNATIMVIEHAERFGISQLHQLRGRVGRGEHASSCFLVYTKLTGDAKDRLQAMAATGDGFRLSEIDLQIRGAGNMLGREQSGAASGLRIADLLTDGDIMRAARAAAFELIRRDETLTHPENALIRDYYMTHFRKRISLADVG", "protein production": "failed"},
      {"sequence": "MPPNTSFRLAALAVTVSGLLFSSSTLMAAETAETADLVLRNGNIYTVNQGQPWAEAVAVRDGRYVFIGSNAQAAEFIGPKTQVVDLNGSMAMPGINDVHAHPLDGGYEDIYSCNFSQKSSLDDILSQVSECAQKAGPGEWVIGSAWGSPRMAELSTTEALAKLDKVSNGRPVILRDDSYHNRWINSEAMRLAAITAQSVSPAGGVIVKDAKTGEPTGLLQEFPAFQHVQSLVPVRTEEQRLTSGRGATKTMVSLGITGVQEAVSSEVNLRIWSKIDRAEGLPLRIIGSIVSTPLLDEGAAGLELVARRDVYRTTNFFPDRFKFVLDGVPPAHTAKLIEPYLPTQAHGDHYHGDTHYTTEQVVEILSKLDKQGISTKLHAAGDGSLRLALDAVEQVRKINGPNGPMHQIAHTHLISPQDMPRFAQLRVAADLSPMLWFPSDMTNASVVTIGEERMKDFVPTVKLLRSGAVVAGGSDWPAGGPTPSPWIGIEGLVTRQNPLGDAPGTLAPEEAVDLPEAIRIYTINSAKAMGIEKETGSVELGKSADLIVLDRHLFNVPIKQVHRANVVKTYFKGQLVHSAPEKS", "protein production": "failed"},
      {"sequence": "MPPTQAESVIRSIIREIGQECAAHGEIVSETLIAFMVKAVVLDPSNGFNMDRTLMKSDVQNLVKLCMTRLLDTKNPSLDTIKMQVYFDMNYTNRVEFLEEHHRVLESRLGSVTREITDNRACAKEELESLYRKIISYVLLRSGLGSPTDIKTVREVTAALQSVFPQAELGTFLTLSKKDKERQLKELTMIVTGIRLFNRDCGKGGEGIDDLPAVLHVAIPATMQHIDYQLETARSQVYRYTAILEKAANDPLMRAELQPYMLKEALYNIRQYEVFLQIILSDIITGAQEVEMMTKQLGAHLEQLKMTIKSKIAVPTSQVFPIFIALSTLWTSLQDETIVVGVLSNLFTHIQPFLGAHELYFPERVMQCHLNGATVKTDVCRMKEHMEDRVNVADFRKLEWLFPETTANFDKLLIQYRGFCAYTFAATDGLLLPGNPAIGILKYKEKYYTFNSKDAAYSFAENPEHYIDIVREKAKKNTELIQLLELHQQFETFIPYSQMRDADKHYIKPITKCESSTQTNTHILPPTIVRSYEWNEWELRRKAIKLANLRQKVTHSVQTDLSHLRRENCSQVYPPKDTSTQSMREDSTGVPRPQIYLAGLRGGKSEITDEVKVNLTRDVDET", "protein production": "failed"},
      {"sequence": "MPQGCDRPSHGLRLADEQGRCQIKFVASDSPAEQAGLMIGDEIVALNGLRVSADNFSRRLATYQAGQVLELTIFHDDQLQSFSLTLAEPQPQSYNLRPAATVTSLEHHHHHH", "protein production": "failed"},
      {"sequence": "MPQGKWFRFGYGIVLVLLIIYLGSLVDWIFRPIVVFVQTLFAPVIIAGILYYLFRPIVGLLSKKMNRGLSILILFLMIIGAFTAFSLIVGPELQRQFQSLYNNLPTLINQVRDTFIALQSNELFNRFQESETFQPEEMISRFVNSLNDIIGTIGANITGFIGALANFFIILVLVPFILFYLLKEGEKLPVQLLKLFNKKQQHEGRLILADMDKMLSSYIQGQIIVSFCVGILCYIAYLIIGLDYALILALVAMFTNVIPFVGPWIGTFPAVIVAFIDSPLTALIVVIVVVVIQQIESNLISPQVMGKKLAIHPITIIFILLVAGRFAGVVGMLLAVPTYAVGKVIVTHSYRLWKLRKQPVE", "protein production": "failed"},
      {"sequence": "MPQSAPPNTRQAVLWNDVSGKAWVEMQPILDEILAPFERLVVDAGYPREGGNVLDIGCGAGATTLAMARRVGNDGNCVGLDISQPLVALATERTKLGEVANASFEVGDAQTYAFESGHFDAAISRFGVMFFDDPMAAFTNIRKAVRRRGKLAFVAWRSPLENDFMTTAVRAAAPFLPPAPAPDPDAPGQFAFADGAKVRRILEASGWASIEVEQADVPCRIAQRDLMAYATRLGPLGAALREVDRATAERITTVLPAAFAPFVDDGEARFNAACWLVTALA", "protein production": "failed"},
      {"sequence": "MPQVKLKEGEPVDVAIRRFKRSCEKAGVLADVRKREFYEKPTQERKRKKAAAVKRYQKKLARESVRTTRLY", "protein production": "failed"},
      {"sequence": "MPRKKKTVEDPALTRALKVMEAGALPDADLAAEFATLAESYGKLLRKFNKTLVISDAYEAQHQAMAKKLEEATWKYRQLKDVALPICMYCKKIRSDDDYWQRLETFFCNHADIMFSHGICPDCIKTAYEKMGMNRRAMPLPDAAVTGQPAASPERQPVEDDALREMRALVRRSAFDGSPVAPEVEQFVEKYGKLLRRFSKIVSISDSYQSQLRELNARLELMARTDLLTGLANHWEMVMRLAAEQSRSERNGKVFSIVLADIDHFKKVNDTHGHQAGDRVIRGIADTLRTNIRREDICSRWGGEEFLIILPEADLPRAGAVAAKLLAKVRNTVVPWDGRDIRVTVSIGYGTSEPGMSVDELIRRVDDALYSAKAAGRDRFAAAGSRADV", "protein production": "failed"}
    ]}
  ]
}
